# T1: MAGE-A2 peptide on HLA-DPA1*01:03 / HLA-DPB1*04:01 (human)
# T1 peptide: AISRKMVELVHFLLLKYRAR
# B1: 06-MAGE-A2108-127 TCR (TCR, V domains shown)
# Valpha: QKVTQAQTEISVVEKEDVTLDCVYETRDTTYYLFWYKQPPSGELVFLIRRNSFDEQNEISGRYSWNFQKSTSSFNFTITASQVVDSAVYFCALSVGTYKYIFGTGTRLKVLA
# Vbeta: DTGVSQNPRHKITKRGQNVTFRCDPISEHNRLYWYRQTLGQGPEFLTYFQNEAQLEKSRLLSDRFSAERPKGSFSTLEIQRTEQGDSAMYLCASSPGTGGRETQYFGPGTRLLVL
# Biological target: T1, MAGE-A2 peptide on HLA-DPA1*01:03 / …
# Test: multimer staining
binder,measurement,value
B1,binding result,recognises

# Source: US20220275046A1 (published 2022)
